The target in assay [1] is SARS-CoV-2 BQ.1.1 Spike RBD (SARS-CoV-2 BQ.1.1 variant). As to the kind of experiment: BLI, IgG.
In assay [2] the target is SARS-CoV-2 XBB.1.5 Spike RBD (SARS-CoV-2 XBB.1.5 variant). As to the kind of experiment: BLI, IgG. (Biolayer interferometry detects binding as a change in optical thickness at a sensor tip.)
The target in assay [3] is SARS-CoV-2 XBB Spike RBD (SARS-CoV-2 XBB variant). Nature of the assay: BLI, IgG.
Assay [4] has as its target SARS-CoV-2 Beta-variant Spike with two stabilizing proline substitutions (S-2P) (SARS-CoV-2 Beta variant). Nature of the assay: BLI, IgG, single replicate.
Assay [5] has as its target SARS-CoV-2 Omicron-variant receptor binding domain (RBD) (SARS-CoV-2 Omicron variant). As to the kind of experiment: BLI, IgG.
Assay [6] shares this target. As to the kind of experiment: BLI, Fab.
The target in assay [7] is SARS-CoV-2 Beta-variant Spike with two stabilizing proline substitutions (S-2P) (SARS-CoV-2 Beta variant). As to the kind of experiment: BLI, Fab.

The Kd is the equilibrium constant for the complex coming apart.

B1: SA58 WT IgG (antibody, V domains shown)
VH: QVQLAQSGSELRKPGASVKVSCDTSGHSFTSNAIHWVRQAPGQGLEWMGWINTDTGTPTYAQGFTGRFVFSLDTSARTAYLQISSLKADDTAVFYCARERDYSDYFFDYWGQGTLVTVSS
VL: EVVMTQSPASLSVSPGERATLSCRARASLGISTDLAWYQQRPGQAPRLLIYGASTRATGIPARFSGSGSGTEFTLTISSLQSEDSAVYYCQQYSNWPLTFGGGTKVEIK
As for B1, the figures for the Kd in assay [1], in assay [2] and in assay [3] were under 0.001 nM, 2400 nM and 7400 nM, respectively.

B2: REGN10987 WT IgG (antibody, V domains shown)
VH: QVQLVESGGGVVQPGRSLRLSCAASGFTFSNYAMYWVRQAPGKGLEWVAVISYDGSNKYYADSVKGRFTISRDNSKNTLYLQMNSLRTEDTAVYYCASGSDYGDYLLVYWGQGTLVTVSS
VL: QSALTQPASVSGSPGQSITISCTGTSSDVGGYNYVSWYQQHPGKAPKLMIYDVSKRPSGVSNRFSGSKSGNTASLTISGLQSEDEADYYCNSLTSISTWVFGGGTKLTVL
Regarding B2, the Kd in assay [4] amounted to 0.09 nM; in assay [5], 700 nM.

B3: REGN10987 WT Fab (Fab, V domains shown)
VH: QVQLVESGGGVVQPGRSLRLSCAASGFTFSNYAMYWVRQAPGKGLEWVAVISYDGSNKYYADSVKGRFTISRDNSKNTLYLQMNSLRTEDTAVYYCASGSDYGDYLLVYWGQGTLVTVSS
VL: QSALTQPASVSGSPGQSITISCTGTSSDVGGYNYVSWYQQHPGKAPKLMIYDVSKRPSGVSNRFSGSKSGNTASLTISGLQSEDEADYYCNSLTSISTWVFGGGTKLTVL
On to B3, for which the Kd worked out at 23000 nM in assay [6] and 13 nM in assay [7].

These data come from patent publication US20250243261A1.
